Here are results for two molecules from US20210030857A1 (NGM BIOPHARMACEUTICALS, published 2021).

Test [1] concerns the target T1, human beta klotho expressed on cells (human, UniProt Q86Z14 1-1044).
T1 construct: also called HuKLB overexpressing cells; Human KLB
T1 sequence: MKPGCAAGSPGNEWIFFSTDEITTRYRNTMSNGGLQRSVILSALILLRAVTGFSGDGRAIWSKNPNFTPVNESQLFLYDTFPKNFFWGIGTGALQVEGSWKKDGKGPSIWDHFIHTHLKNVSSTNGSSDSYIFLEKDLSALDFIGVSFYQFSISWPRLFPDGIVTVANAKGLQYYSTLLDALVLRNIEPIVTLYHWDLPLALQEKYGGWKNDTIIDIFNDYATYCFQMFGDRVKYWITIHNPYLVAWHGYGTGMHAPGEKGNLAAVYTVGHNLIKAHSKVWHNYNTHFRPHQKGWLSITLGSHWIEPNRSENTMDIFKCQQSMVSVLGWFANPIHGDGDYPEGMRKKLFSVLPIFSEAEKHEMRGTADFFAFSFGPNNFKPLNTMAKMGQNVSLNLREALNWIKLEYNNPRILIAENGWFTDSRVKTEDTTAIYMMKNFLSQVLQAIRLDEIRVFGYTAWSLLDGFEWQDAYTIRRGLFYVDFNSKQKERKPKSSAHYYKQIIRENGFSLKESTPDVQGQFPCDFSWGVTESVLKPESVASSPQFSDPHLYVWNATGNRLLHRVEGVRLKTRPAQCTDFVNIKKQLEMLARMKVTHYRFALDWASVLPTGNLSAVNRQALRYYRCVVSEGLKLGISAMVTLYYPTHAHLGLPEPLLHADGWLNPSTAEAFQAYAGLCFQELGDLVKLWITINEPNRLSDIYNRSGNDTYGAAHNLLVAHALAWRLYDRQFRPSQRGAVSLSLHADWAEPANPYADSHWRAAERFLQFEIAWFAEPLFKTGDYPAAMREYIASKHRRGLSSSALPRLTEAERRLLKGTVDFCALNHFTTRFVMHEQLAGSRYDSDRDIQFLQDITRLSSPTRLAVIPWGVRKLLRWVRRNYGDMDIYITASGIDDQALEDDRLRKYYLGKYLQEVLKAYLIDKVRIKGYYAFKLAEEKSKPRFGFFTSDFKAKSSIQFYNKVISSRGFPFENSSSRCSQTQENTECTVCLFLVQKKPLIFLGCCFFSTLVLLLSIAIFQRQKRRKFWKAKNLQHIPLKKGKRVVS
The test is described as follows: FACS on transfected Expi293 cells. Here is the method:
(§1) Studies were performed in order to localize the binding site on human KLB of anti-beta klotho antibodies in the 5H23 epitope bin, including 5H23 as described in Example 3, with sequences shown in Tables 1-10 and FIGS. 1-3, and human anti-beta klotho antibodies in the 5H23 epitope bin, such as humanized 5H23 antibodies (e.g., VH SEQ ID NO: 271 and VL SEQ ID NO: 276). For example, FACS-based binding assays for domain mapping were performed on Expi293 cells (Life Technologies, A14635) that were transiently transfected with plasmids encoding variants of KLB: human, mouse, cynomolgus, a chimeric version in which the KL1 domain sequence of mouse KLB (M1-F506) replaces the KL1 domain of human KLB (M1-F508) to create mouse-human KLB (SEQ ID NO: 376), and a second chimera in which the human KL1 sequence (M1-F508) replaces the KL1 domain of mouse KLB (M1-F506) to create human-mouse KLB (SEQ ID NO: 374). Additionally, the expression vector pYD7 harboring no KLB sequence was transfected as a negative control.
(§2) In some studies, binding of a purified sample of a humanized 5H23 antibody (e.g., VH SEQ ID NO: 271 and VL SEQ ID NO: 276) to KLB variants was determined by FACS analysis. […] After washing with PBS/1% BSA/0.1% azide, transfected cells were then co-incubated with labeled anti-human Fc (Jackson lmmunoresearch) for 30 minutes at 4° C. After washing with PBS/1% BSA/0.1% azide, cells were acquired on flow cytometer (FACS Calibur) and analyzed by cytometric software (FlowJo). To display the resulting data, graphs plotting the number of cells as a function of fluorescence intensity were generated, and the median fluorescence intensity (MFI) was determined for each sample as shown in Table 30.

For test [2], the target named is T2, human-mouse KLB chimeric protein (human KLB (M1-F508)-mouse KLB (P507-S1043)) on cells (human/mouse chimera, UniProt Q99N32 1-1043 (mouse entry)).
T2 construct: also called Human-Mouse chimeric KLB; chHuMo
The test is described as follows: FACS on transfected Expi293 cells. Here is the method:
as §1, §2

B1: negative control antibody, anti-keyhole limpet hemocyanin (KLH) antibody (antibody, human IgG1, kappa, V domains shown)
VH: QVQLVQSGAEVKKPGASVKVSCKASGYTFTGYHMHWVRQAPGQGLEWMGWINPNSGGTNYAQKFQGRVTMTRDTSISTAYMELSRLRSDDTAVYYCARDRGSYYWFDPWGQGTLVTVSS
VL: DIQMTQSPSSLSASVGDRVTITCRASQGIRNDLGWYQQKPGKAPKRLIYAASSLQSGVPSRFSGSGSGTEFTLTISSLQPEDFATYYCLQHNSYPLTFGGGTKVEIKR
notes: also called Neg; Control; anti-KLH antibody
For the molecule B1, the binding result in test [1] is “no binding (tested: 1 µg/ml)”.

B2: humanized 5H23 antibody (VH SEQ ID NO: 271 and VL SEQ ID NO: 276) (antibody, V domains shown)
VH: QVQLQQSGAEVKKPGASVKVSCKASGYTFTSYDINWVRQAPGQGLEWIGWIYPGDGSTKYNEKFKGKATITRDTSASTAYMELSSLRSEDTAVYFCARSDYYGSRSFAYWGQGTLVTVSS
VL: DIVMTQSPDSLAVSLGERATINCRASKSVSTSGYVYMHWYQQKPGQPPKLLIYLASYLESGVPDRFSGSGSGTDFTLTISSVQAEDVAVYYCQHSRDLTFPFGGGTKLEIK
notes: also called h5H23; h5H23 (Prep 1)
As for B2, the binding result in test [2] is reported as “no binding (tested: 1 µg/ml)”.
